Measurements from article PMC8810155, “The eptinezumab:CGRP complex structure – the role of conformational changes in binding stabilization” (Bioengineered, 2021).

Target: T1, α-CGRP (human) 37-mer peptide (calcitonin gene-related peptide) (Homo sapiens, UniProt P06881, C-terminal amide (amidated Phe119))
T1 construct: human alpha-CGRP, mature 37-residue hormone; mature residues 26-37 correspond to 108-119 of the pro-hormone, so mature 1-37 would be 83-119; Only residues 26-37 (mature numbering; 108-119 of the pro-hormone) are visible in the complex structure; source: bought: Bachem
T1 chain: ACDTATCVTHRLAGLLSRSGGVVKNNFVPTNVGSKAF
Test: crystal structure; CGRP mixed with the Fab, complex purified by SEC; crystals at 20°C in sitting drops, 26% PEG MME 550, 9.5 mM ZnSO4, 95 mM MES pH 6.5, 30 mM glycyl-glycyl-glycine; X-ray diffraction to 3.10 Å; 2 Fab and 2 CGRP per asymmetric unit
Conditions: both partners purified

B1: eptinezumab antigen-binding fragment (Fab) (Fab, V domains shown)
VH: EVQLVESGGGLVQPGGSLRLSCAVSGIDLSGYYMNWVRQAPGKGLEWVGVIGINGATYYASWAKGRFTISRDNSKTTVYLQMNSLRAEDTAVYFCARGDIWGQGTLVTVSS
VL: QVLTQSPSSLSASVGDRVTINCQASQSVYHNTYLAWYQQKPGKVPKQLIYDASTLASGVPSRFSGSGSGTDFTLTISSLQPEDVATYYCLGSYDCTNGDCFVFGGGTKVEIK
notes: heavy-chain part of the papain Fab of eptinezumab (humanized IgG1); light chain of eptinezumab; CDR L3 holds a disulfide bond (Cys95, Cys100 are named); also called eptinezumab Fab; source: partial endoproteolysis of eptinezumab with immobilized papain; purified by Fc depletion followed by SEC
  binding result: binds
